Assay results taken from patent US20250388676A1 (Sanofi, published 2025).

T1: human GITR (human, UniProt Q9Y5U5 26-241)
T1 sequence (looked up): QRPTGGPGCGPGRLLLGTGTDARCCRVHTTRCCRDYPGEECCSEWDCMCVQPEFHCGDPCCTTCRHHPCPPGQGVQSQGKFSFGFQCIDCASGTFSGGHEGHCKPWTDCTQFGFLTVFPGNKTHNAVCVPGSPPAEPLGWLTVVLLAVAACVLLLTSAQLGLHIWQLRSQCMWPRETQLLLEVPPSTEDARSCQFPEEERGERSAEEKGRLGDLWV


Assays:
[1] = target: T2, human PD-1 (human, UniProt Q15116 25-288); experiment: receptor occupancy by flow cytometry on activated splenic CD8+ T cells of hGITR/hPD-1 KI mice; free PD-1 detected with competing Anti-hPD-1-BV421, total PD-1 with non-competing Anti-hPD-1 NANOBODY-A647 [panel A]
T2 construct: On pre-B 300.19 cells stably expressing human PD-1, on NFAT-RE/PD-1 Jurkat reporter cells and on T cells of hGITR/hPD-1 knock-in mice; also called hPD-1; PD1 (on reporter cells)
T2 sequence (Q15116 25-288 limits assumed): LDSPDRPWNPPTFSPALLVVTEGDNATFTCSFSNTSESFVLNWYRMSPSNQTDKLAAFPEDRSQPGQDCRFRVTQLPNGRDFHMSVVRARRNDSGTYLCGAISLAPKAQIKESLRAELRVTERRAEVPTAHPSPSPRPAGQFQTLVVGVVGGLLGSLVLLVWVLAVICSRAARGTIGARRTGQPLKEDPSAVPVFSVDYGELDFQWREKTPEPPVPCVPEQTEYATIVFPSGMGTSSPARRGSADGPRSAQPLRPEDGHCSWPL
Excerpt: (§1) Anti-hGITR NANOBODY®-A488 as non-competing agent detecting total GITR Activated T cells were then washed and analyzed on a Cytek® Aurora flow cytometer.

[2] = target: T2, human PD-1; experiment: cell-based or functional assay
[3] = target: T1, human GITR; experiment: cell-based or functional assay
[4] = target: cynomolgus GITR (cynomolgus monkey); experiment: cell-based or functional assay
[5] = target: T1, human GITR; experiment: receptor occupancy by flow cytometry on activated splenic CD8+ T cells of hGITR/hPD-1 KI mice; free GITR detected with competing Anti-hGITR-BV605, total GITR with non-competing Anti-hGITR NANOBODY-A488 [panel B]
Excerpt: as §1

[6] = target: T2, human PD-1; experiment: receptor occupancy by flow cytometry on activated splenic CD4+ T cells of hGITR/hPD-1 KI mice; free PD-1 detected with competing Anti-hPD-1-BV421, total PD-1 with non-competing Anti-hPD-1 NANOBODY-A647 [panel A]
Excerpt: as §1

[7] = target: T1, human GITR; experiment: flow cytometry on NFkB-NlucP/HEK293 cells expressing human GITR, anti-human IgG Fc detection, 4PL fit
Description: (§2) Binding properties of the bispecific molecules and controls to multiple targets expressed on cell surfaces were evaluated with flow cytometry. […] Cell suspensions were analyzed with iQue Screener 3 (Sartorius, Intellicyt). In each washing step, plates were centrifuged for 2 minutes at 300×g at 4° C., supernatants discarded and buffer dispensed by Biotek ELX405 microplate washer (BioTek). Other reagents were added either manually or with ViaFlo (Integra). EC50s were estimated by dose response modelling. Curves were fit using 4 parameter logistic regression in GraphPad (GraphPad Software Inc.).

[8] = target: T3, cynomolgus GITR (cynomolgus monkey); experiment: flow cytometry on NFkB-NlucP/HEK293 cells expressing cyno GITR, anti-human IgG Fc detection, 4PL fit
T3 construct: whole, on cells; also called cyno GITR; cyGITR
Description: as §2

[9] = target: T1, human GITR; experiment: receptor occupancy by flow cytometry on activated splenic CD4+ T cells of hGITR/hPD-1 KI mice; free GITR detected with competing Anti-hGITR-BV605, total GITR with non-competing Anti-hGITR NANOBODY-A488 [panel B]
Excerpt: as §1

[10] = target: T4, cynomolgus PD-1 (cynomolgus monkey); experiment: flow cytometry on pre-B 300.19 cells expressing cyno PD-1, anti-human IgG Fc detection, 4PL fit
T4 construct: whole, on cells; also called cyno PD-1; cyPD-1
Description: as §2

[11] = target: T2, human PD-1; experiment: flow cytometry on pre-B 300.19 cells expressing human PD-1, anti-human IgG Fc detection, 4PL fit
Description: as §2

[12] = target: T4, cynomolgus PD-1; experiment: flow cytometry on pre-B 300.19 cells expressing cyno PD-1, detection with anti-human IgG Fc F(ab')2 [panel B]
[13] = target: T2, human PD-1; experiment: flow cytometry on pre-B 300.19 cells expressing human PD-1, detection with anti-human IgG Fc F(ab')2 [panel A]

| EC50 (read off the curve) [1] [pM] | hPD-1 IC50 (reporter assay) [2] [pM] | hGITR EC50 (reporter assay) [3] [pM] | cyGITR EC50 (reporter assay) [4] [pM] | EC50 (read off the curve) [5] [pM] | EC50 (read off the curve) [6] [pM] | EC50 [7] [pM] | EC50 [8] [pM] | EC50 (read off the curve) [9] [pM] | EC50 [10] [pM] | EC50 [11] [pM] | EC50 (read off the curve) [12] [pM] | EC50 (read off the curve) [13] [pM] | Binder |
| --- | --- | --- | --- | --- | --- | --- | --- | --- | --- | --- | --- | --- | --- |
| ~30 | 500 | 7.7 | 8.3 | ~200 | ~30 | 34 | 34 | ~200 | 370 | 240 | – | – | GITRL/anti-PD-1 mAb2 (bispecific antibody, human IgG1, kappa, L234A L235A, Single-chain GITRL trimer inserted between VH and CH1 of each heavy chain; bivalent for PD-1, hexavalent for GITR; also called GITRL trimer/anti-PD-1 mAb2; single-chain GITRL trimer/anti-PD-1 mAb2) heavy: not shown light: EIVLTQSPATLSLSPGERATLSCGASQSVPINFLAWYQQKPGLAPRLLIYEASSRHTGIPDRFSGSGSGTDFTLTISRLEPEDFAVYYCGQYGSSPYTFGQGTKLEIKRTVAAPSVFIFPPSDEQLKSGTASVVCLLNNFYPREAKVQWKVDNALQSGNSQESVTEQDSKDSTYSLSSTLTLSKADYEKHKVYACEVTHQGLSSPVTKSFNRGEC |
| – | 560 | 8.7 | 10 | – | – | 14 | 14 | – | 580 | 330 | – | – | GITRL/anti-PD-1 mAb1 (bispecific antibody, human IgG1, kappa, L234A L235A, Single-chain GITRL trimer inserted between VH and CH1 of each heavy chain; bivalent for PD-1, hexavalent for GITR; also called GITRL trimer/anti-PD-1 mAb1; single-chain GITRL trimer/anti-PD-1 mAb1) heavy: not shown light: EIVLTQSPATLSLSPGERATLSCGASQSVSINFLAWYQQKPGLAPRLLIYEASSRATGIPDRFSGSGSGTDFTLTISRLEPEDFAVYYCQQYGSSPYTFGQGTKLEIKRTVAAPSVFIFPPSDEQLKSGTASVVCLLNNFYPREAKVQWKVDNALQSGNSQESVTEQDSKDSTYSLSSTLTLSKADYEKHKVYACEVTHQGLSSPVTKSFNRGEC |
| ~300 | – | – | – | – | ~400 | – | – | – | – | – | ~400 | ~200 | GITRLmut/anti-PD-1 mAb2 (antibody, V domains shown) VH: QLQLQESGPGLVKPSETLSLTCTVSGGSISSSSYFWGWIRQPPGKGLEWIGSIYRSGSTYYNPSLKSRVTISVDTSKNQFSLKLSSVTAADTAVYYCARGITGDPGDYWGQGTLVTVSS VL: EIVLTQSPATLSLSPGERATLSCGASQSVPINFLAWYQQKPGLAPRLLIYEASSRHTGIPDRFSGSGSGTDFTLTISRLEPEDFAVYYCGQYGSSPYTFGQGTKLEIK |
| – | – | – | – | – | – | – | – | – | – | – | ~500 | ~300 | GITRLmut/anti-PD-1 mAb1 (antibody, V domains shown) VH: QLQLQESGPGLVKPSETLSLTCTVSGGSISTSSYFWGWIRQPPGKGLEWIGSIYRSGSTYYNPSLKSRVTISVDTSKNQFSLKLSSVTAADTAVYYCARGITGDPGDYWGQGTLVTVSS VL: EIVLTQSPATLSLSPGERATLSCGASQSVSINFLAWYQQKPGLAPRLLIYEASSRATGIPDRFSGSGSGTDFTLTISRLEPEDFAVYYCQQYGSSPYTFGQGTKLEIK |
